Measurements: the supplement of paper PMC7877785
± gives the uncertainty stated by the source.

Assay: self-splicing fitness, log relative to wild type (ln ratio); higher = more splicing; Tetrahymena group I intron in knt gene, E. coli kanamycin selection, DiMSum; sequences stand for … in CUCUCU…GGAGGGAAAAGUUAUCAGGCAUGCACCUGGUAGCUAGUCUUUAAACCAAUAGAUUGCAUCGGUUUAAAAGGCAAGACCGUCAAAUUGCGGGAAAGGGGUCAACAGCCGUUCAGUACCAAGUCUCAGGGGAAACUUUGAGAUGGCCUUGCAAAGGGUAUGGUAAUAAGCUGACGGACAUGGUCCUAACCACGCAGCCAAGUCCUAAGUCAACAGAUCUUCUGUUGAUAUGGAUGCAGUUCACAGACUAAAUGUCGGUCGGGGAAGAUGUAUUCUUCUCAUAAGAUAUAGUCGGACCUCUCCUUAAUGGGAGCUAGCGGAUGAAGUGAUGCAACACUGGAGCCGCUGGGAACUAAUUUGUAUGCGAAAGUAUAUUGAUUAGUUUUGGAGUACUCGUGGUCG
In short: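 The eight P1ex-region nucleotides of an intron in the knt kanamycin-resistance gene on pET-22b(+) were all randomised and the library put into E. coli BL21(DE3). Six replicate transformations were grown overnight at 37°C or 30°C on LB agar with or without 25 μg/mL kanamycin, together with 100 μg/mL carbenicillin, 50 μM IPTG and 0.2% rhamnose. Colonies were pooled and amplicon-sequenced on an Illumina HiSeq 2500. Fitness from DiMSum is the error-weighted combination of wild-type-normalised replicate fold changes, kanamycin over none.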

| Sequence | self-splicing fitness (ln) (30 °C) | self-splicing fitness (ln) (37 °C) |
| --- | --- | --- |
| AGACAGCAAUAUUACGAGCA | -1.46 ± 0.12 | -0.648 ± 0.13 |
| AGACAGCAAUAUUACGAUUA | -1.15 ± 0.062 | -0.971 ± 0.086 |
| AGACAGCAAUAUUACGAUUG | -2.94 ± 0.16 | -3.15 ± 0.28 |
| AGACAGCAAUAUUACGCCAU | -3.25 ± 0.26 | -1.78 ± 0.17 |
| AGACAGCAAUAUUACGCCUG | -1.88 ± 0.12 | 0.171 ± 0.11 |
| AGACAGCAAUAUUACGCUCU | -2.08 ± 0.18 | -0.598 ± 0.15 |
| AGACAGCAAUAUUACGCUUG | -2.71 ± 0.13 | -1 ± 0.12 |
| AGACAGCAAUAUUACGGGGC | -3.97 ± 0.23 | -1.69 ± 0.17 |
| AGACAGCAAUAUUACGGUGG | -3 ± 0.12 | -1.89 ± 0.17 |
| AGACAGCAAUAUUACGGUGU | -3.34 ± 0.12 | -2.59 ± 0.12 |
| AGACAGCAAUAUUACGUAAC | -3.82 ± 0.15 | -1.69 ± 0.15 |
| AGACAGCAAUAUUACGUCAG | -2.3 ± 0.092 | -0.807 ± 0.11 |
| AGACAGCAAUAUUACGUCAU | -2.86 ± 0.13 | -2.17 ± 0.15 |
| AGACAGCAAUAUUACGUCGA | -1.01 ± 0.089 | -1.07 ± 0.12 |
| AGACAGCAAUAUUACGUCUG | -1.6 ± 0.076 | -0.662 ± 0.08 |
| AGACAGCAAUAUUACGUGCC | -0.679 ± 0.12 | -0.815 ± 0.17 |
| AGACAGCAAUAUUACGUGCU | -3.14 ± 0.12 | -1.56 ± 0.085 |
| AGACAGCAAUAUUACGUGGG | -3.37 ± 0.13 | -2.37 ± 0.13 |
| AGAGAGCAAUAUUACGAAUA | – | -0.719 ± 0.49 |

| Sequence | self-splicing fitness (ln) (30 °C) | self-splicing fitness (ln) (37 °C) |
| --- | --- | --- |
| AGAGAGCAAUAUUACGACAA | – | -2.46 ± 0.48 |
| AGAGAGCAAUAUUACGACCA | – | -0.796 ± 0.48 |
| AGAGAGCAAUAUUACGACGG | -3.4 ± 0.28 | – |
| AGAGAGCAAUAUUACGAGCG | -2.63 ± 0.3 | – |
| AGAGAGCAAUAUUACGAUGA | -3.27 ± 0.24 | -2.37 ± 0.23 |
| AGAGAGCAAUAUUACGAUUA | -2.43 ± 0.25 | -2.57 ± 0.32 |
| AGAGAGCAAUAUUACGCACA | -3.27 ± 0.48 | – |
| AGAGAGCAAUAUUACGCCCA | – | -0.88 ± 0.36 |
| AGAGAGCAAUAUUACGCCGC | -3.9 ± 0.3 | -1.49 ± 0.25 |
| AGAGAGCAAUAUUACGCGGA | – | -2.21 ± 0.34 |
| AGAGAGCAAUAUUACGGACC | -2.79 ± 0.3 | -1.05 ± 0.33 |
| AGAGAGCAAUAUUACGGGGU | – | -2.65 ± 0.26 |
| AGAGAGCAAUAUUACGGGUA | -4.04 ± 0.42 | -1.47 ± 0.19 |
| AGAGAGCAAUAUUACGGUAC | – | -2.12 ± 0.27 |
| AGAGAGCAAUAUUACGGUCA | -2.48 ± 0.49 | -1.97 ± 0.24 |
| AGAGAGCAAUAUUACGGUUC | -4.09 ± 0.37 | -2.11 ± 0.29 |
| AGAGAGCAAUAUUACGUCCC | -2.37 ± 0.33 | -1.25 ± 0.37 |
| AGAGAGCAAUAUUACGUGUA | -2.73 ± 0.3 | -2.78 ± 0.32 |
